Measured values reported in the supplement of paper PMC6757056.
± gives the standard deviation of the averaged measurements.

B1: library; a variant is named by its letters at N, in order (parent)
chain: GCUGUCACCGGUGCUUGGUACGUUAUAUUCAGCCGGUCUGAUGAGUCUNNNNNNAGACGAAACAGC

Key:
(6R,S)-folinic acid [1] = variants of: B1; assay: FACS-Seq fitted mean relative fluorescence mCherry/BFP without ligand (log10 relative fluorescence); HEK293T overexpressing SLC46A1; higher = higher reporter protein expression; settings: without (6R,S)-folinic acid; ligand present: no
Procedure, shortened: (§1)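 Cells were sorted into 6 bins on the mCherry/BFP ratio after 48 h with or without ligand. These were enriched HEK293T cells transduced by lentivirus with a ribozyme-switch mCherry reporter plus an EF1α-BFP marker. Fluorescence was obtained by fitting a normal distribution to sequencing-derived bin counts. Counts came from MiSeq sequencing of PCR-amplified, barcoded genomic DNA, binned by log10(mCherry/BFP), with means scaled to five spiked-in control ribozymes.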

(6R,S)-folinic acid [2] = variants of: B1; assay: normalized RNA/DNA level without ligand (relative to sTRSVctl = 100) (log10 (% of sTRSVctl)); HEK293T overexpressing SLC46A1; higher = less ribozyme self-cleavage, higher mRNA level; settings: without (6R,S)-folinic acid; ligand present: no
Procedure, shortened: (§2)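 HEK293T cells received ligand, where used, 1 h before being transfected with 4 µg per 6-well well of library plasmids encoding reporter-linked ribozyme switches. After 72 h, RNA was extracted with EDTA and sequenced. RNA level was derived from RNA reads per DNA read, normalized to a spiked-in non-cleaving sequence or the top sequences, then scaled and log-transformed. Values were ×100 then log10, the top set was 25 sequences, and the minimum was 100 DNA reads.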

(6R,S)-folinic acid [3] = variants of: B1; assay: FACS-Seq fitted mean relative fluorescence mCherry/BFP with ligand (log10 relative fluorescence); HEK293T overexpressing SLC46A1; ligand concentration (+) FACS-Seq: 6 mM; higher = higher reporter protein expression; settings: with (6R,S)-folinic acid; ligand present: yes
Procedure, shortened: as §1

(6R,S)-folinic acid [4] = variants of: B1; assay: normalized RNA/DNA level with ligand (relative to sTRSVctl = 100) (log10 (% of sTRSVctl)); HEK293T overexpressing SLC46A1; ligand concentration (+) RNA-Seq: 6 mM; higher = less ribozyme self-cleavage, higher mRNA level; settings: with (6R,S)-folinic acid; ligand present: yes
Procedure, shortened: as §2

Row | Variant | FACS-Seq fitted mean (log10) ((6R,S)-folinic acid [1]) | normalized RNA/DNA level without ligand (log10) ((6R,S)-folinic acid [2]) | FACS-Seq fitted mean (log10) ((6R,S)-folinic acid [3]) | normalized RNA/DNA level with ligand (log10) ((6R,S)-folinic acid [4])
1 | AUAACU | -0.545 ± 0.34 | 2.009 ± 0.007 | -0.619 ± 0.76 | 2.02 ± 0.038
2 | AUAACC | -0.122 ± 0.045 | 2.011 ± 0.015 | -0.194 ± 0.26 | 2 ± 0.034
3 | CGUUGC | 0.557 ± 0.049 | 2.02 ± 0.025 | 0.358 ± 0.33 | 2.02 ± 0.047
4 | UUAGAG | 0.029 ± 0.12 | 1.7074 ± 0.0017 | 0.476 ± 0.11 | 1.95 ± 0.045
5 | UUAGAA | 0.323 ± 0.038 | 1.913 ± 0.0022 | 0.278 ± 0.054 | 1.98 ± 0.038
6 | GUAAUG | 0.394 ± 0.16 | 1.94 ± 0.023 | 0.532 ± 0.053 | 1.98 ± 0.038
7 | GUAAUA | -0.154 ± 0.025 | 1.996 ± 0.006 | 0.161 ± 0.059 | 1.97 ± 0.039
8 | GUAAUC | 0.0594 ± 0.051 | 2.09 ± 0.023 | -0.00665 ± 0.0039 | 2.063 ± 0.0092
9 | AUAAUA | 0.469 ± 0.017 | 1.982 ± 0.0023 | 0.369 ± 0.62 | 1.992 ± 0.015
10 | AUAAGC | 0.38 ± 0.1 | 2.003 ± 0.0058 | 0.792 ± 0.04 | 2.02 ± 0.042
11 | AUAAGU | 0.346 ± 0.17 | 1.88 ± 0.024 | 0.682 ± 0.15 | 2.01 ± 0.044
12 | AUAAGG | 0.0495 ± 0.016 | 1.882 ± 0.011 | 0.356 ± 0.25 | 1.99 ± 0.012
13 | CGUUAA | 0.362 ± 0.031 | 1.97 ± 0.016 | 0.486 ± 0.18 | 1.98 ± 0.025
14 | AUACCA | -0.158 ± 0.032 | 2.036 ± 0.01 | -0.268 ± 0.23 | 2.01 ± 0.043
15 | GUAACC | 0.499 ± 0.17 | 2.059 ± 0.0095 | 0.419 ± 0.081 | 2.053 ± 0.017
16 | UGUUGA | 0.32 ± 0.026 | 1.837 ± 0.015 | 0.463 ± 0.13 | 2.01 ± 0.035
17 | UGUUGG | -0.0684 ± 0.078 | 1.53 ± 0.048 | 0.426 ± 0.024 | 1.88 ± 0.042
18 | UGUUCC | 0.382 ± 0.066 | 2.05 ± 0.023 | 0.146 ± 0.006 | 2.05 ± 0.062

Row | Variant | FACS-Seq fitted mean (log10) ((6R,S)-folinic acid [1]) | normalized RNA/DNA level without ligand (log10) ((6R,S)-folinic acid [2]) | FACS-Seq fitted mean (log10) ((6R,S)-folinic acid [3]) | normalized RNA/DNA level with ligand (log10) ((6R,S)-folinic acid [4])
19 | CUAAAG | -0.0676 ± 0.063 | 1.913 ± 0.0067 | -0.0285 ± 0.2 | 2 ± 0.035
20 | CUAAAA | 0.151 ± 0.029 | 1.98 ± 0.021 | 0.19 ± 0.12 | 1.98 ± 0.048
21 | GGUUAG | 0.215 ± 0.017 | 1.982 ± 0.016 | 0.245 ± 0.13 | 2 ± 0.035
22 | GGUUAU | 0.612 ± 0.021 | 1.989 ± 0.019 | 0.481 ± 0.077 | 1.98 ± 0.023
23 | GGUUUG | 0.0685 ± 0.084 | 2.024 ± 0.0089 | -0.1121 ± 0.00036 | 2.06 ± 0.025
24 | UUAAGA | 0.166 ± 0.039 | 1.95 ± 0.024 | 0.272 ± 0.014 | 2.04 ± 0.029
25 | UUAAGG | 0.0635 ± 0.0074 | 1.855 ± 0.0022 | 0.25 ± 0.22 | 1.98 ± 0.025
26 | AUAGAC | 0.4594 ± 0.0035 | 1.968 ± 0.0041 | 0.536 ± 0.13 | 1.98 ± 0.017
27 | AUAGAG | 0.0276 ± 0.0023 | 1.52 ± 0.0028 | 0.431 ± 0.14 | 1.89 ± 0.034
28 | AGUUGU | 0.3648 ± 0.0018 | 1.962 ± 0.012 | 0.521 ± 0.35 | 2.04 ± 0.028
29 | AGUUGC | 0.455 ± 0.088 | 2.001 ± 0.0034 | 0.705 ± 0.23 | 2.03 ± 0.016
30 | AGUUGA | 0.17 ± 0.13 | 1.964 ± 0.015 | 0.105 ± 0.028 | 2.018 ± 0.016
31 | GUAGAA | 0.384 ± 0.0046 | 1.954 ± 0.0058 | 0.522 ± 0.23 | 1.995 ± 0.0074
32 | GUAGAG | 0.201 ± 0.057 | 1.759 ± 0.015 | 0.87 ± 0.12 | 1.98 ± 0.035
33 | AUACUC | 0.248 ± 0.028 | 2.049 ± 0.0056 | 0.188 ± 0.18 | 2.03 ± 0.037
34 | UUAAAA | 0.578 ± 0.062 | 1.9319 ± 0.0016 | 0.669 ± 0.26 | 1.966 ± 0.017
35 | UUAAAC | 0.248 ± 0.093 | 1.984 ± 0.0098 | 0.271 ± 0.092 | 1.99 ± 0.031
36 | UUAAAG | 0.413 ± 0.085 | 1.822 ± 0.008 | 0.519 ± 0.17 | 1.94 ± 0.042
